Assay [1] addresses CBP (endogenous, HIT cells) (hamster). Nature of the assay: cell-based or functional assay.
The next assay has as its target KIX-VP16 (UniProt Q92793). The experiment in a line: cell-based or functional assay.

Data on 3 substances can be found in patent US20100190693A1.

KIX-VP16, sequence (Q92793 587-666): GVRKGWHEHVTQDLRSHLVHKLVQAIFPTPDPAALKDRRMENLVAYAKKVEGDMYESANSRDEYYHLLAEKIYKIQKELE

In assay [1], “GAL4-CREB M1 (Ser133Ala) (from UniProt P04386 1-147; P16220 1-341)” gave a GAL4 luciferase reporter in HIT cells, response to cAMP of 2.5 fold.
Same read-out and setting: under “GAL4-CREB, wild-type (from UniProt P04386 1-147; P16220 1-341)” stands 10 fold.
In the assay with KIX-VP16, GAL4-KID (from UniProt P16220 87-146) yielded a GAL4 luciferase reporter, mammalian two-hybrid assay in HIT cells, forskolin of 20 fold.
